# Measurements published in patent US20230331827A1, “POTASSIUM CHANNEL INHIBITORS” (priority 2017, published 2023).
# Like-named read-outs stand apart in the source and are kept apart here.
# T1: human ASIC1a (human) (UniProt P78348)
# T1 sequence (looked up): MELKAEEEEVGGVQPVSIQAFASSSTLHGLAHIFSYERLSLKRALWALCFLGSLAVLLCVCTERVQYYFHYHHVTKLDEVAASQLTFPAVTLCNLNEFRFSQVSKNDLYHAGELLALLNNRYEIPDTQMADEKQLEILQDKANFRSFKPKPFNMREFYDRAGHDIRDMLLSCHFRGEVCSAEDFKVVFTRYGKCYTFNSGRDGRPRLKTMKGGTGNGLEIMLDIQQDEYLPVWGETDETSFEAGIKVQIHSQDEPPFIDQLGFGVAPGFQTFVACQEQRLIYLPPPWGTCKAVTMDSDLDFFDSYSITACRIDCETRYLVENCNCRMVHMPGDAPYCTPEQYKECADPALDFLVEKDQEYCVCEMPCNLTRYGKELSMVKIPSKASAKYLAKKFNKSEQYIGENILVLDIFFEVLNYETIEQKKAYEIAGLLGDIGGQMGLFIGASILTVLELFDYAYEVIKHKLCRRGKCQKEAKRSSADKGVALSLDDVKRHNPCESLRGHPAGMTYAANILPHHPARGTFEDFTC
# Experiments:
# human Kv1.3 (human) [1] = molecular target: human Kv1.3 (human) (UniProt P22001); assay: cell-based or functional assay
# Sequence of human Kv1.3 (human) (P22001 whole entry): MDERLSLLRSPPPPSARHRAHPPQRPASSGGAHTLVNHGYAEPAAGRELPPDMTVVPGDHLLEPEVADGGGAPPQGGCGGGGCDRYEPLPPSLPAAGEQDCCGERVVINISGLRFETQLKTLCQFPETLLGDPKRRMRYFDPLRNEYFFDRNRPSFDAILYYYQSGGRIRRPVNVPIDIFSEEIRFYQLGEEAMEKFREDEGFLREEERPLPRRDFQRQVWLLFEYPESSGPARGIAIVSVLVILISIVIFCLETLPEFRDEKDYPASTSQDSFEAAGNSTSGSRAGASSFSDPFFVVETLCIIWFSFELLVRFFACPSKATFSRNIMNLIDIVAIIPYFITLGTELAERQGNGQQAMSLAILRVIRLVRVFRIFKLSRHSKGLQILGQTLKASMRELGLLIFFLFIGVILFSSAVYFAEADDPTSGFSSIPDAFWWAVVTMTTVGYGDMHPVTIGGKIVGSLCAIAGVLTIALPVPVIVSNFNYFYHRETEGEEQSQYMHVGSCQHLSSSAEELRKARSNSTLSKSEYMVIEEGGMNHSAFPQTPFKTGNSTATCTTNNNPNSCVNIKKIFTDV
# human ASIC1a (human) = molecular target: T1, human ASIC1a (human); assay: cell-based or functional assay
# human Kv1.1 (human) = human Kv1.1 (human) (UniProt Q09470); assay: cell-based or functional assay
# Sequence of human Kv1.1 (human) (Q09470 whole entry): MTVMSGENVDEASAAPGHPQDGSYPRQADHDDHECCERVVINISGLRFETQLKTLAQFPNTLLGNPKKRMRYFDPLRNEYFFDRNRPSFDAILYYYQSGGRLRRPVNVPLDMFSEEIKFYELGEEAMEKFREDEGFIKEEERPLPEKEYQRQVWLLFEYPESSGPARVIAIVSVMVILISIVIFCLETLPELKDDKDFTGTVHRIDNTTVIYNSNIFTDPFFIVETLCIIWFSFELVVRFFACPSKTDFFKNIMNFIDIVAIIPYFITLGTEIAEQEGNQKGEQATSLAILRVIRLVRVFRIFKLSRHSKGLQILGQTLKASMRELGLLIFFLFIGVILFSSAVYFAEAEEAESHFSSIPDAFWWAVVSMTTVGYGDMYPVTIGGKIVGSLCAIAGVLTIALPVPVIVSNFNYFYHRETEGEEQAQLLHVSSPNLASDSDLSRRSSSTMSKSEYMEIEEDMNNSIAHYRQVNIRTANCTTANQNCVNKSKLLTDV
# trypsin [2] = assay: flow cytometry, biotinylated trypsin/streptavidin-APC
# trypsin [3] = assay: flow cytometry of HEK293 cells displaying the scFv-Fc, 15 days post transfection after blasticidin selection; untransfected cells (panel C): Q2 0.043
# trypsin [4] = assay: monoclonal phage ELISA on trypsin
# human Kv1.3 (human) [5] = molecular target: human Kv1.3 (human) (UniProt P22001); assay: cell-based or functional assay; remark: listed apart in the source
# trypsin [6] = assay: phage TRF, GlyAla mutant against parent clone
binder,measurement,setting,value
"KB_A07 IgG1 (EETI-II fusion) (antibody, V domains shown) VH: EVQLVESGGGLVRPGGSLRLSCAASGFTFSSYAMSWVRQAPGKGLEWVSAISGSGGSTYYADSVKGRFTISRDNTKNSLYLQMTSLRADDTAFYYCVKDFGPGYGTGWFDYWGPGTLVTVSS VL: YLNWYQQKPGKAPKLLIYAAGVCPRILMRCKQDSDCLAGCVCGPNGFCGSRSGVPSRFSGSGSGTDFTLTISSLQPEDFATYYCQQGASPPYTFGQGTKVEIKR","IC50, channel current, QPatch patch clamp",human Kv1.3 (human) [1],> 10000 nM
same,"IC50, huKv1.3 current, QPatch patch clamp",human Kv1.3 (human) [1],> 10000 nM
same,"% ASIC1a current remaining at 6 µM, QPatch",human ASIC1a (human),70.9%
same,"IC50, channel current, QPatch patch clamp",human Kv1.1 (human),> 10000 nM
KB_A12 scFv-Fc displayed on HEK293 cells (Fc fusion) VH: EVQLVESGGGLVRPGGSLRLSCAASGFTFSSYAMSWVRQAPGKGLEWVSAISGSGGSTYYADSVKGRFTISRDNTKNSLYLQMTSLRADDTAFYYCVKDFGPGYGTGWFDYWGPGTLVTVSS VL: QSVLTQPPSVSEAPRQRVTITCSGSSSNIGNNAVNWYQQLPGKAPKLLIYAAGRCPRILMRCKQDSDCLAGCVCGPNGFCGANSGVSDRFSAAKSGTSASLAINGLRSEDEADYYCAAWDDSLNGYVFGTGTKLTVLGQP,% of transfected HEK293 cells dual stained for Fc and trypsin,trypsin [2],11%
same,"Q2, share of cells stained by both anti-Fc-PE (FL2) and biotinylated trypsin/streptavidin-APC (FL4)",trypsin [3],11.2%
"E03 (EET 5-3 KnotBody) (scFv, V domains shown) VH: EVQLVESGGGLVRPGGSLRLSCAASGFTFSSYAMSWVRQAPGKGLEWVSAISGSGGSTYYADSVKGRFTISRDNTKNSLYLQMTSLRADDTAFYYCVKDFGPGYGTGWFDYWGPGTLVTVSS VL: AVNWYQQLPGKAPKLLIYAAGGCGPNGFCGSGSDGGVCPRILMRCKQDSDCLAGCGRNSGIPERFSGSKSGHTATLTISRVEAGDEADYYCQVWDSSSDHVLFGGGTKLTVLG",ELISA signal,trypsin [4],82500
"E05 (EET 5-3 KnotBody) (scFv, V domains shown) VH: EVQLVESGGGLVRPGGSLRLSCAASGFTFSSYAMSWVRQAPGKGLEWVSAISGSGGSTYYADSVKGRFTISRDNTKNSLYLQMTSLRADDTAFYYCVKDFGPGYGTGWFDYWGPGTLVTVSS VL: AVNWYQQLPGKAPKLLIYAAGGCGPNGFCGSGSDGGVCPRILMRCKQDSDCLAGCGAQSGIPERFSGSKSGTSASLAISGLQSEDEAHYYCAAWDDSLNGYVFGTGTKVTVLG",ELISA signal,trypsin [4],119000
"E01 (EET 5-3 KnotBody) (scFv, V domains shown) VH: EVQLVESGGGLVRPGGSLRLSCAASGFTFSSYAMSWVRQAPGKGLEWVSAISGSGGSTYYADSVKGRFTISRDNTKNSLYLQMTSLRADDTAFYYCVKDFGPGYGTGWFDYWGPGTLVTVSS VL: AVNWYQQLPGKAPKLLIYAAGGCGPNGFCGSGSDGGVCPRILMRCKQDSDCLAGCGIHSGVSDRFSDSKSGTSASLAISGLQSEDEADYYCAAWDDSLNGYVFGTGTKLTVLG",ELISA signal,trypsin [4],128000
"F01 (EET 5-3 KnotBody) (scFv, V domains shown) VH: EVQLVESGGGLVRPGGSLRLSCAASGFTFSSYAMSWVRQAPGKGLEWVSAISGSGGSTYYADSVKGRFTISRDNTKNSLYLQMTSLRADDTAFYYCVKDFGPGYGTGWFDYWGPGTLVTVSS VL: YLNWYQQKPGKAPKLLIDAAGECGPNGFCGSGSDGGVCPRINMRCKQDSDCLAGCGRDSGVPSRFSGSGSGTDFTLTISSLQPEDFATYYCQQSYSTPWTFGQGTKVEIKR",ELISA signal,trypsin [4],102000
"G11 (EET 5-3 KnotBody) (scFv, V domains shown) VH: EVQLVESGGGLVRPGGSLRLSCAASGFTFSSYAMSWVRQAPGKGLEWVSAISGSGGSTYYADSVKGRFTISRDNTKNSLYLQMTSLRADDTAFYYCVKDFGPGYGTGWFDYWGPGTLVTVSS VL: AVNWYQQLPGKAPKLLIYAAGGCGPNGFCGSGSDGGVCPRILMRCKQDSDCLAGCGQSSGVSDRFSGSKSGTSATLDITGLQTGDEADYYCGTWDNSLSVGVFGGGTKVTVLG",ELISA signal,trypsin [4],27600
"KB_A12_Vm24 (antibody, V domains shown) VH: EVQLVESGGGLVRPGGSLRLSCAASGFTFSSYAMSWVRQAPGKGLEWVSAISGSGGSTYYADSVKGRFTISRDNTKNSLYLQMTSLRADDTAFYYCVKDFGPGYGTGWFDYWGPGTLVTVSS VL: QSVLTQPPSVSEAPRQRVTITCSGSSSNIGNNAVNWYQQLPGKAPKLLIYAAGRAAAISCVGSPECPPKCRAQGCKNGKCMNRKCKCYYCANSGVSDRFSAAKSGTSASLAINGLRSEDEADYYCAAWDDSLNGYVFGTGTKLTVLG",Fold difference (Kv1.1 IC50 against Kv1.3 IC50),human Kv1.3 (human) [1],102 fold
same,"Kv1.3 IC50, QPatch patch clamp",human Kv1.3 (human) [1],12 nM
same,"Kv1.1 IC50, QPatch patch clamp",human Kv1.1 (human),1220 nM
same,"IC50, huKv1.3 current, QPatch patch clamp",human Kv1.3 (human) [5],16 nM
"KB_A12 IgG1 (EETI-II fusion) (antibody, V domains shown) VH: EVQLVESGGGLVRPGGSLRLSCAASGFTFSSYAMSWVRQAPGKGLEWVSAISGSGGSTYYADSVKGRFTISRDNTKNSLYLQMTSLRADDTAFYYCVKDFGPGYGTGWFDYWGPGTLVTVSS VL: AVNWYQQLPGKAPKLLIYAAGRCPRILMRCKQDSDCLAGCVCGPNGFCGANSGVSDRFSAAKSGTSASLAINGLRSEDEADYYCAAWDDSLNGYVFGTGTKLTVLG","IC50, channel current, QPatch patch clamp",human Kv1.3 (human) [1],> 10000 nM
same,"IC50, huKv1.3 current, QPatch patch clamp",human Kv1.3 (human) [1],> 10000 nM
same,"% ASIC1a current remaining at 3.3 µM, QPatch",human ASIC1a (human),67.4%
same,"IC50, channel current, QPatch patch clamp",human Kv1.1 (human),> 10000 nM
"KB_A12_Odk2 short (antibody, V domains shown) VH: EVQLVESGGGLVRPGGSLRLSCAASGFTFSSYAMSWVRQAPGKGLEWVSAISGSGGSTYYADSVKGRFTISRDNTKNSLYLQMTSLRADDTAFYYCVKDFGPGYGTGWFDYWGPGTLVTVSS VL: NWYQQLPGKAPKLLIYAAGRVKCRGSPQCIQPCKDAGMRFGKCMNGKCHCTPKANSGVSDRFSAAKSGTSASLAINGLRSEDEADYYCAAWDDSLNGYVFGTGTKLTVLG",Fold difference (Kv1.1 IC50 against Kv1.3 IC50),human Kv1.3 (human) [1],8 fold
same,"Kv1.3 IC50, QPatch patch clamp",human Kv1.3 (human) [1],49 nM
same,"Kv1.1 IC50, QPatch patch clamp",human Kv1.1 (human),380 nM
same,"IC50, huKv1.3 current, QPatch patch clamp",human Kv1.3 (human) [5],64 nM
"F03 (EET 5-3 KnotBody) (scFv, V domains shown) VH: EVQLVESGGGLVRPGGSLRLSCAASGFTFSSYAMSWVRQAPGKGLEWVSAISGSGGSTYYADSVKGRFTISRDNTKNSLYLQMTSLRADDTAFYYCVKDFGPGYGTGWFDYWGPGTLVTVSS VL: AVNWYQQLPGRAPKLLIYAAGGCGPNGFCGSGGDGGVCPRILMRCKQDSDCLAGCGAHSGIPERFSGSKSGTSASLAISGLRSEDEADYYCAAWDDSLNGWVFGGGTKVTVLG",ELISA signal,trypsin [4],68000
"E09 (EET 5-3 KnotBody) (scFv, V domains shown) VH: EVQLVESGGGLVRPGGSLRLSCAASGFTFSSYAMSWVRQAPGKGLEWVSAISGSGGSTYYADSVKGRFTISRDNTKNSLYLQMTSLRADDTAFYYCVKDFGPGYGTGWFDYWGPGTLVTVSS VL: AVNWYQQLPGKAPKLLIYAAGGCGPNGFCGSGSDGGVCPRILMRCKQDSDCLAGCGTQSGIPERFSGSKSGTSASLAISGLRSEDEADYYCAAWDDSLRAYVFGTGTQLTVLG",ELISA signal,trypsin [4],70300
"E08 (EET 5-3 KnotBody) (scFv, V domains shown) VH: EVQLVESGGGLVRPGGSLRLSCAASGFTFSSYAMSWVRQAPGKGLEWVSAISGSGGSTYYADSVKGRFTISRDNTKNSLYLQMTSLRADDTAFYYCVKDFGPGYGTGWFDYWGPGTLVTVSS VL: AVNWYQQLPGKAPKLLIYAAGGCGPNGFCGSGSDGGVCPRILMRCKQDSDCLAGCGIQSGIPERFSGSKSGTSASLAISGLRSEDEADYYCAAWDDNLSGYVFGTGTKLTVLG",ELISA signal,trypsin [4],121000
"KB_A01 GlyAla mutant (scFv on phage) (scFv, V domains shown) VH: EVQLVESGGGLVRPGGSLRLSCAASGFTFSSYAMSWVRQAPGKGLEWVSAISGSGGSTYYADSVKGRFTISRDNTKNSLYLQMTSLRADDTAFYYCVKDFGPGYGTGWFDYWGPGTLVTVSS VL: YLNWYQQKPGKAPKLLIYAAEVCGAILMRCKQDSDCLAGCVCGPNGFCGGTSGVPSRFSGSRSGTEFTLTISSLQPEDFATYYCQKVDDYPLTFGGGTKVEIKR",% reduction in binding signal,trypsin [6],93%
KB_A07 scFv-Fc displayed on HEK293 cells (Fc fusion) VH: EVQLVESGGGLVRPGGSLRLSCAASGFTFSSYAMSWVRQAPGKGLEWVSAISGSGGSTYYADSVKGRFTISRDNTKNSLYLQMTSLRADDTAFYYCVKDFGPGYGTGWFDYWGPGTLVTVSS VL: DIQMTQSPSSLSASVGDRVTITCRASQSISSYLNWYQQKPGKAPKLLIYAAGVCPRILMRCKQDSDCLAGCVCGPNGFCGSRSGVPSRFSGSGSGTDFTLTISSLQPEDFATYYCQQGASPPYTFGQGTKVEIKRT,% of transfected HEK293 cells dual stained for Fc and trypsin,trypsin [2],34%
same,"Q2, share of cells stained by both anti-Fc-PE (FL2) and biotinylated trypsin/streptavidin-APC (FL4)",trypsin [3],33.8%
"C09 (EET 5-3 KnotBody) (scFv, V domains shown) VH: EVQLVESGGGLVRPGGSLRLSCAASGFTFSSYAMSWVRQAPGKGLEWVSAISGSGGSTYYADSVKGRFTISRDNTKNSLYLQMTSLRADDTAFYYCVKDFGPGYGTGWFDYWGPGTLVTVSS VL: SEAPRQRVTITCGGKRCGPNGFCGSGSDGGVCPRILMRCKQDSDCLAGCTSNWYQQKPGQAPVLVVQDDSVRPSGIPERFSGSNSGNTATLTISRVEAGDGADYYCQVWDISSDLGVFGGGTKLTVLG",ELISA signal,trypsin [4],9820
"F07 (EET 5-3 KnotBody) (scFv, V domains shown) VH: EVQLVESGGGLVRPGGSLRLSCAASGFTFSSYAMSWVRQAPGKGLEWVSAISGSGGSTYYADSVKGRFTISRDNTKNSLYLQMTSLRADDTAFYYCVKDFGPGYGTGWFDYWGPGTLVTVSS VL: AVNWYQQLPGKAPKLLIYAAGGCGPNGFCGSGSDGGVCPRILMRCKQDSDCLAGCGGQSGVPDRFSGSKSGTSASLAISRLQSEDEADYYCAAWDDSLNAYVFGTGTKVTVLG",ELISA signal,trypsin [4],72800
